Assays:
[1] = target: murine α-cardiac myosin (filaments) (mouse) (UniProt Q02566); test: co-sedimentation
[2] = target: F-actin from rabbit skeletal muscle (rabbit) (UniProt P68135); test: co-sedimentation

cosedimentation relative to human C0-C2 [1] [%] | Kd [2] [µM] | stoichiometry N (mol C0-C2/mol actin) [2] | Substance
162 |  |  | mouse short form C0-C2, N-terminal tagged (mSF2), lacking the 8 amino acid NTE (domain or fragment)
60 | 7.9 | 1 | wild-type mouse cMyBP-C C0-C2 (with the N-terminal extension, NTE) (domain or fragment)
